This note sets out measurements from paper PMC4828840, “Structural insight into the cooperation of chloroplast chaperonin subunits” (BMC Biology, 2016).

The target of assay [1] is CPN60β1 homo-oligomer (Chlamydomonas reinhardtii).
Assay [2] shares this target. The assay is described as follows: crystal structure; apo CPN60β1 homo-oligomer, 3.8 Å, space group P21, molecular replacement with apo GroEL.
A further assay deals with T1, GroEL (E. coli, UniProt P0A6F5 1-548).
T1 construct: GroEL, group I chaperonin of E. coli; Purification of proteins is in Additional file 1; copies: 14
The assay is described as follows: SEC; gel filtration, Superdex 200; 2 μM chaperonin and 10 μM GroES; buffer with 50 μM AMP-PNP; fractions on SDS-PAGE, Coomassie. As to conditions: both partners purified.

“mitochondrial co-chaperonin Hsp10 from mouse (from UniProt Q64433 1-102) (natural protein)” returned an inhibition of the ATPase activity of CPN60β1 (0.2 μM chaperonin, 0.4 μM co-chaperonin, 25 °C) in assay [1] of 50%. As for CPN60β1 homo-oligomer (natural protein), the stoichiometry N in assay [2] came out at 14 subunits.

B1: GroES (natural protein, E. coli, UniProt P0A6F9 1-97, looked up)
chain: MNIRPLHDRVIVKRKEVETKSAGGIVLTGSAAAKSTRGEVLAVGNGRILENGEVKPLDVKVGDIVIFNDGYGVKSEKIDNEEVLIMSESDILAIVEA
notes: GroES, co-chaperonin of E. coli; Purification of proteins is in Additional file 1
Consider B1, for which the binding result with GroEL is “binds”.
